The results in this text go back to paper PMC6078968, “Structural insights into the gating of DNA passage by the topoisomerase II DNA-gate” (Nature Communications, 2018).

Data set [1] concerns the molecule itself. Nature of the data set: crystal structure; open DNA-gate form of the hTop2β^core-DNA cleavage complex, space group P3_(2)21, one subunit in the asymmetric unit, homodimer built by the crystallographic twofold axis; 2.75 Å (5ZEN) and 3.87 Å with iodine-labelled DNA (5ZQF); MnCl2 in the sample buffer, reservoir pH 5.8, 4 °C.
Data set [2] has as its target T1, hTop2βcore (DNA-binding and cleavage core of human topoisomerase 2β) (human, UniProt Q02880-2 445-1201). Nature of the data set: X-ray crystallography (2.75 Å); open DNA-gate cleavage complex; Mn2+ (2 mM MnCl2), Mg acetate; etoposide or doxorubicin in crystallization mix, refined as binary complex; Crystallization: 5 mg/mL (~28 uM) protein, ~34 uM duplex, 2 mM etoposide or doxorubicin, 30 mM Tris-HCl pH 7.0, 70 mM NaCl, 2 mM MnCl2 (MgCl2 for P21), 1 mM EDTA, 2 mM β-mercaptoethanol; reservoir 100 mM Mg acetate, 50 mM MES pH 5.8 (5.6 for P21), …. Conditions: protein: recombinant; chain copies: 2; blunt; self-complementary, 2 copies of S1; cleaved with 4-nt stagger in the complex.

Data set [3] has as its target T1, hTop2βcore (DNA-binding and cleavage …). Nature of the data set: X-ray crystallography (3.87 Å); open DNA-gate cleavage complex; Mn2+ (2 mM MnCl2), Mg acetate; etoposide or doxorubicin in crystallization mix, refined as binary complex; Crystallization: 5 mg/mL (~28 uM) protein, ~34 uM duplex, 2 mM etoposide or doxorubicin, 30 mM Tris-HCl pH 7.0, 70 mM NaCl, 2 mM MnCl2 (MgCl2 for P21), 1 mM EDTA, 2 mM β-mercaptoethanol; reservoir 100 mM Mg acetate, 50 mM MES pH 5.8 (5.6 for P21), …. To be noted: protein: recombinant; chain copies: 2; blunt; self-complementary, 2 copies; cleaved with 4-nt stagger in the complex.

B1: DNA-binding and cleavage core of human topoisomerase 2β (hTop2β^core), in the covalent cleavage complex with a 20-bp duplex DNA (domain or fragment, UniProt Q02880-2 445-1201, looked up)
chain: SVKYSKIKGIPKLDDANDAGGKHSLECTLILTEGDSAKSLAVSGLGVIGRDRYGVFPLRGKILNVREASHKQIMENAEINNIIKIVGLQYKKSYDDAESLKTLRYGKIMIMTDQDQDGSHIKGLLINFIHHNWPSLLKHGFLEEFITPIVKASKNKQELSFYSIPEFDEWKKHIENQKAWKIKYYKGLGTSTAKEAKEYFADMERHRILFRYAGPEDDAAITLAFSKKKIDDRKEWLTNFMEDRRQRRLHGLPEQFLYGTATKHLTYNDFINKELILFSNSDNERSIPSLVDGFKPGQRKVLFTCFKRNDKREVKVAQLAGSVAEMSAYHHGEQALMMTIVNLAQNFVGSNNINLLQPIGQFGTRLHGGKDAASPRYIFTMLSTLARLLFPAVDDNLLKFLYDDNQRVEPEWYIPIIPMVLINGAEGIGTGWACKLPNYDAREIVNNVRRMLDGLDPHPMLPNYKNFKGTIQELGQNQYAVSGEIFVVDRNTVEITELPVRTWTQVYKEQVLEPMLNGTDKTPALISDYKEYHTDTTVKFVVKMTEEKLAQAEAAGLHKVFKLQTTLTCNSMVLFDHMGCLKKYETVQDILKEFFDLRLSYYGLRKEWLVGMLGAESTKLNNQARFILEKIQGKITIENRSKKDLIQMLVQRGYESDPVKAWKEAQEKAAEEDETQNQHDDSSSDSGTPSGPDFNYILNMSLWSLTKEKVEELIKQRDAKGREVNDLKRKSPSDLWKEDLAAFVEELDKVESQERED
modifications: catalytic tyrosine (Tyr821) joined to the 5′-phosphate of the cleaved G-segment DNA by a phosphotyrosyl linkage
notes: Not seen in 5ZEN chain A: 445-451, 597-602, 616-624, 703-706, 1112-1134; the His tag is surmised from the Ni-NTA step; also called hTop2^core; Top2 cleavage complex; source: E. coli BL21 (DE3) Star-pLysS, purified (Ni-NTA, heparin, Superdex 200)
As for B1, the binding result in data set [1] was “binds”.

B2: 20-bp G-segment duplex (native) (dsDNA)
DNA 1: AGCCGAGCTGCAGCTCGGCT
DNA 2: AGCCGAGCTGCAGCTCGGCT
With B2, the binding result in data set [2] was “binds”.

B3: 20-bp G-segment duplex, 5-iododeoxyuridine labeled (DNAI) (dsDNA)
DNA 1: AGCCGAGCUGCAGCUCGGCU
DNA 2: AGCCGAGCUGCAGCUCGGCU
modifications: 5-iodo-2'-deoxyuridine replaces all thymidines (positions 9, 15, 20 of each strand); U denotes iododeoxyuridine, DNA backbone
In the case of B3, the binding result in data set [3] is “binds”.
